# Data: the supplement of paper PMC10201428
# ± gives the standard deviation of the averaged measurements.
# B1: library; a variant is named by its letters at N, in order (parent)
# chain: AATGTTGTTGATGCAACCATAAAGTGATATTTAATAATTATTTATAATCAGCAACTTAACCACAAAACAACCATATATTGATATNTCACAAAACAACCATAANTTGATATTTTTGTGAATCGAGTATTTCAGCAAAACTACTGCAGTAAGAA
# Columns and labels:
# [1] = variants of: B1; test: relative integration efficiency (T-LR orientation) vs wild-type transposon end (log2 (normalized fold change)); transposon end mutated: left end; higher = more efficient transposition; details: with VchCAST RNA-guided transposition machinery (E. coli BL21(DE3) host, lacZ target)
# Procedure, shortened: (§1)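 Barcode abundances in input plasmids and in genomic integration junctions were obtained by PCR amplification and Illumina sequencing. These came from E. coli BL21(DE3) co-transformed with a T7-driven effector plasmid and a pUC57 donor carrying 1549 left-end or 1849 right-end transposon variants, then plated with 0.1 mM IPTG at 37°C for 18 h. Relative integration efficiency is the output/input fold change, normalised to reference barcodes and log-transformed.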
# [2] = variants of: B1; test: relative integration efficiency (T-RL orientation) vs wild-type transposon end (log2 (normalized fold change)); transposon end mutated: left end; higher = more efficient transposition; details: with VchCAST RNA-guided transposition machinery (E. coli BL21(DE3) host, lacZ target)
# Procedure, shortened: as §1
Variant,relative integration efficiency (log2) [1],relative integration efficiency (log2) [2]
CG T3G,0.394 ± 0.5,0.0915 ± 0.044
CG T3C,0.718 ± 0.1,0.297 ± 0.0045
CG T3A,-0.175 ± 0.58,-0.148 ± 0.071
CG T8G,< -10,-6.68 ± 0.98
CG T8C,-0.996 ± 0.69,-1.39 ± 0.56
CG T8A,-0.491 ± 0.035,-0.209 ± 0.19
CG T5A T6A,< -10,-6.46 ± 0.12
CG C87G A88T,0.294 ± 0.33,0.11 ± 0.21
CG C55G T56A T57A A58T,-2.28 ± 0.67,-0.983 ± 0.39
CG C72A,-0.613 ± 1,-0.492 ± 0.48
CG C72G,-0.262 ± 0.52,-0.201 ± 0.43
CG C72T,-0.0498 ± 0.25,-0.0527 ± 0.2
CG T9G G10T A11C T12G,-1.29 ± 0.52,-0.645 ± 0.35
TG G24A T30A T76A T78A T84A C87A,0.236 ± 0.09,0.0157 ± 0.17
CG C98T,-0.0503 ± 0.61,-0.178 ± 0.14
CG C98G,-0.135 ± 0.48,-0.464 ± 0.23
CG C98A,-0.338 ± 1.2,-0.0969 ± 0.46
TG G24A T30A A70C T76A T86G,1.23 ± 0.52,0.692 ± 0.36
CG C72A A73C T74G A75C,-2.39 ± 1.6,-2.27 ± 0.64
CG G51C C52G,-0.162 ± 0.74,-0.107 ± 0.11

Variant,relative integration efficiency (log2) [1],relative integration efficiency (log2) [2]
TG G24A T30A T76A T78G C87A,0.0926 ± 0.5,0.0283 ± 0.13
CG C87A A88C,0.256 ± 0.18,-0.00605 ± 0.14
CG G80C,-1.47 ± 0.43,-2.06 ± 0.66
CG G80T,0.0932 ± 0.91,-0.44 ± 0.42
CG G80A,-0.967 ± 1.4,-0.773 ± 0.37
CG C63G,0.324 ± 0.23,0.223 ± 0.039
CG C63A,0.438 ± 0.02,0.237 ± 0.012
CG C63T,0.266 ± 0.018,0.0804 ± 0.061
CG G117C A118T,0.236 ± 0.11,0.235 ± 0.026
CG C94A A95C,-0.623 ± 0.98,-0.474 ± 0.4
CG C60A C61A A62C C63A,0.51 ± 0.29,0.406 ± 0.095
CG G13T C14A A15C A16C,-1.69 ± 1.1,-0.389 ± 0.12
CG C98A A99C,-1.94 ± 1,-1.73 ± 0.54
CG C60A C61A,0.547 ± 0.41,0.353 ± 0.049
CG G24T T25G,-0.649 ± 0.2,-0.561 ± 0.34
CG G10T A11C,-2.92 ± 0.037,-1.58 ± 0.41
CG T25A G26C,-1.33 ± 1.5,-1.73 ± 0.85
CG T12A G13A T32A A77C T86G,0.117 ± 0.45,-0.0481 ± 0.05
CG T5G T6G G7T T8G,< -10,-6.89 ± 0.7
CG T12A G13C C14G A15T,-0.874 ± 0.76,-0.341 ± 0.43

Variant,relative integration efficiency (log2) [1],relative integration efficiency (log2) [2]
CG G10T A11C T12G G13T,-4.3 ± 0.89,-1.43 ± 0.49
CG C89A A90C,0.0275 ± 0.49,-0.181 ± 0.15
CG T12A G13A A77C T86G,-0.125 ± 0.28,-0.319 ± 0.14
CG C72G A73T,-1.6 ± 1.4,-1.44 ± 0.73
CG C94A A95C A96C C97A,-1.9 ± 0.51,-1.87 ± 0.78
CG C61G A62T,-0.236 ± 0.51,-0.362 ± 0.074
CG T12A G13A T30A T31C T32A T86G,-0.319 ± 0.034,-0.119 ± 0.27
CG G106T A107C,-1.19 ± 0.39,-1.42 ± 0.84
CG G26T G80T G106T,-1.86 ± 1.8,-2.79 ± 1.3
CG C94G A95T A96T C97G,-1.95 ± 1.2,-0.731 ± 1
CG C68A A69C,-0.147 ± 0.86,-0.266 ± 0.23
CG T20A T74A T100A,-1.01 ± 0.38,-1.12 ± 0.54
CG C68A A69C A70C C71A,-1.37 ± 0.95,-1.67 ± 0.63
CG C61A A62C,0.514 ± 0.034,0.443 ± 0.054
CG G51T C52A A53C A54C,-0.964 ± 0.62,-0.488 ± 0.45
CG G13T,-0.887 ± 0.83,0.0664 ± 0.041
CG G13A,0.397 ± 0.29,0.195 ± 0.069
CG G13C,-0.392 ± 0.57,0.0316 ± 0.11
